Experimental findings from patent publication US20250034594A1, “RNA-GUIDED GENOME RECOMBINEERING AT KILOBASE SCALE” (THE BOARD OF TRUSTEES OF THE LELAND STANFORD JUNIOR …, priority 2021, published 2025) are described below.

Holding throughout (type): cell-based
For assay [1], the system named is gene editing with Cas9 and dCas9. The experiment in a line: Screen of 322 new SSAP proteins, activity across all experiments (Cas9 and dCas9, Table 5). Set-up: scale not given here. Put shortly:
(§1)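 First, 322 new single-strand annealing proteins are identified from sequences. Next they are synthesized. Finally each is assayed for editing in combination with Cas9 and, separately, dCas9.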

The subject of a further assay is gene editing with Cas9. In words: Screen of 322 new SSAP proteins, gene editing activity with Cas9 (Table 5). Set-up: Cas9 with SSAP activity: scale not given here. Put shortly:
as §1

The subject of a further assay is gene editing with dCas9. In words: Screen of 322 new SSAP proteins, gene editing activity with dCas9 (Table 5). Set-up: dCas9 with SSAP activity: scale not given here. In short, it runs like this:
as §1

B1: SSAP_307: SEQ ID NO: 476; Acetobacterium dehalogenans (protein)
chain: CLRSWTRSFSNSVPLKIRFRLLYTAFLSQGSPLSSVNTTQSADKGSPIFFYAMFKTKDGGYGFEVMSVEDVRAHAKKYSQSFSSAYSPWSKNFEEMAKKTVLKKALKYAPLKSDFVRGIVVDETIKREISEDMYAAPSIEIEYEVDEDGVIQDEPTSNELTEAEK
modifications: Acetobacterium dehalogenans
Regarding B1, the “Activity across all experiments” value in assay [1] is on record as −1.095. Further, in the assay on gene editing with Cas9, the “Cas9 with SSAP activity” value is −1.090 and the “Cas9 with SSAP activity (normalized)” value is recorded as −2.185. For the same molecule, in the assay with gene editing with dCas9, the “dCas9 with SSAP activity” value is −1.100 and the “dCas9 with SSAP activity (normalized)” value is recorded as −0.907.

B2: SSAP_268: SEQ ID NO: 437; Oceanobacillus sp. E9 (protein, listed as Oceanobacillus sp.)
chain: ATNDSLKNQLSSKQGNQNTPSGYTIKQLMGAESVKKRFEEMLDSKASQFMASVINLVNGDTNLQKCDQMSVVSSAMVAATLDLPIDRNLGYAWVIPYGNQATFQLGYKGYIQLALRSGQYRNINVIEVYEGELQSFNRLTEEIELDFEKRTSDKVIGYTGFFELINGFRKTVYWSKAEIEKHKNKFSKSGFGWKNDWDAMAKKTVVRNMLNKWGILSIDMQKAYVEETKDPSEPNGEVIDLNLTEDELTAAQEQFSDENANE
For B2, in assay [1], the “Activity across all experiments” value was −0.656. Also, in the assay with gene editing with Cas9, the “Cas9 with SSAP activity” value is −0.160 and the “Cas9 with SSAP activity (normalized)” value was −0.383. Moreover, in the assay on gene editing with dCas9, the “dCas9 with SSAP activity” value is listed as −1.151 and the “dCas9 with SSAP activity (normalized)” value was −0.400.

B3: SSAP_151: SEQ ID NO: 320; Mammaliicoccus (protein, listed as Mammaliicoccus sp.)
chain: ATNESIKNQVASRKKNEVQNKSPKTQLNDLLIKMGPEIQRALPKHMDADRMARIAMTAVSTTPKLLECDQMSFIGALMQASQLGVEPNTGLGQAYLIPYGGKVQFQLSYKGLIDLATRSGQYKAIYAHEVFPNDEFNYQYGLFKNLEHIPSQEPEGEPIGYYAVYHLKNGGYDFVYWTRERVDKHAKDFSQAVQKGWTSPWKTNYDAMAKKTVLKEVLKYAPKSIEMNKAVNSDSTIKDEINEDMSSVIDITDYEEVNDQQEEKKEESK
B3: in assay [1], the “Activity across all experiments” value is listed as −2.985. Also, in the assay on gene editing with Cas9, the “Cas9 with SSAP activity” value is on record as −4.713 and the “Cas9 with SSAP activity (normalized)” value is −0.683. In the assay on gene editing with dCas9, the “dCas9 with SSAP activity” value is reported as −1.257 and the “dCas9 with SSAP activity (normalized)” value is −0.422.

B4: SSAP_117: SEQ ID NO: 286; Enterocloster bolteae (protein, listed as Enterocloster bolteae)
chain: GVNVKHELEQRAAGQGASVRLTKNMTIVDMVKALEPEIRRALPAVLTPERFTRMALSSINNTPELAECTPMSFIAALLNAAQLGLEPNTPLGQAYLIPYKNKGKLECQFQLGYKGLIDLAYRTGQVQIIQAQVVREFDSFEYQYGLDSKLVHKPGEGARGEITYVYGLFKLSNGGYGFEVSNKTEMDTFAARYSKSFGSKYSPWTEDYESMAKKTVIKRVLKYAPISSDFQKALSMDETIKTGIAVDMSEIRNECLPEEAGSEAA
Turning to B4, the “Activity across all experiments” value in assay [1] is −2.868. Besides, in the assay on gene editing with Cas9, the “Cas9 with SSAP activity” value is −4.474 and the “Cas9 with SSAP activity (normalized)” value is −1.192. Also, in the assay on gene editing with dCas9, the “dCas9 with SSAP activity” value was −1.263 and the “dCas9 with SSAP activity (normalized)” value is recorded as −0.179.

B5: SSAP_308: SEQ ID NO: 477; uncultured organism (protein)
chain: SNELQNIKPEVFGEVEDKLGSLADNNGIDLPENYSARNALKQAYLKLQSKDEPVFDKYKDETIYNALLDTLTQGLNPGKDQVYYIGYGNHLTAQKSYFGNIALAKRMAGVQEVSSNVILEGDEVDISIERGQQVIESHDRNFDSMDGQVKGAYAVISFEDERKDKYEIMTLKELKQAWAQGKSFGGNGKSPHHKFTKEMAKKTVINRALKPLIKASDDSGLIKEKPKLEKLKDGQQERTEGEKIEEVDVDKEEVVEVDYDV
modifications: uncultured organism
Take B5: the “Activity across all experiments” value in assay [1] was −0.985. Also, in the assay with gene editing with Cas9, the “Cas9 with SSAP activity” value is on record as −0.693 and the “Cas9 with SSAP activity (normalized)” value was −1.286. Further, in the assay with gene editing with dCas9, the “dCas9 with SSAP activity” value is on record as −1.277 and the “dCas9 with SSAP activity (normalized)” value is given as −1.011.

B6: SSAP_122: SEQ ID NO: 291; Clostridium transplantifaecale (protein)
chain: TDVKEELARKAGNTGKQEIRLNKNMSIPDMVKVLEPEIKRALPSVLTPERFTRMALSAINNTPKLAECSPMSFIAALMNAAQLGLEPNTPLGQAYLIPYKNKNQLECQFQIGYKGYIDLAYRTGQVQMIQAQAVHEFDYFEYEYGLTPKLVHRPGEGERGEITYFYGLFKMINGGFGFEVMNRAAMDAFAKQYSQSINSKYSPWNSQYEEMAKKTIIKKALKYGPVKSDFQKAISMDESIKTELSIDMSEVRNEDLIDGEFEEAA
modifications: Clostridium transplantifaecale
B6: the “Activity across all experiments” value in assay [1] was found to be 0.144. Besides, in the assay with gene editing with Cas9, the “Cas9 with SSAP activity” value stood at 1.429 and the “Cas9 with SSAP activity (normalized)” value amounted to 0.558. Also, in the assay with gene editing with dCas9, the “dCas9 with SSAP activity” value is listed as −1.142 and the “dCas9 with SSAP activity (normalized)” value was −0.148.

B7: SSAP_141: SEQ ID NO: 310; Hungatella hathewayi (protein, listed as Hungatella hathewayi)
chain: RRDRNVTAVKQELEKKAAGTSQAVKLTKNMTIVDMVKALEPEIKRALPSILTPERFTRMALSAINNTPKLAECTPMSFIAALMNAAQLGLEPNTPLGQAYLIPYKNKGVLECQFQLGYRGMIDLAYRNERMQSIEAQTVYEHDEFFYELGLHPALVHRPTFEDRGEIRAFYAIFRLDNGGYRFEVMSKSYVDAYAMRYSKAFTSEFSPWKSNYEGMAKKTVIKQLLKYAPVKSEFQKAITLDETVKTELSVDMSEVQNEDLSETLTAESAA
As to B7, the “Activity across all experiments” value in assay [1] is given as −1.613. Moreover, in the assay with gene editing with Cas9, the “Cas9 with SSAP activity” value was −2.047 and the “Cas9 with SSAP activity (normalized)” value was −0.694. In addition, in the assay with gene editing with dCas9, the “dCas9 with SSAP activity” value is listed as −1.179 and the “dCas9 with SSAP activity (normalized)” value is −0.244.

B8: SSAP_214: SEQ ID NO: 383; Clostridium tunisiense (protein)
chain: TTKANVTSVKNALKEQIQVQQVAAQTDTSFQGVLTKQLQHQFKAIQSLVPKHVTPERLCRIGINAASRNPQLMNCTPETIVGAIVNCATLGLEPNLLGHAYIVPFYNNKTGKMEAQFQVGYKGALDLIRRTGAVSTLSAHEVYGPRSIFWTQYFY
modifications: Clostridium tunisiense
In the case of B8, the “Activity across all experiments” value in assay [1] is recorded as −0.758. Further, in the assay on gene editing with Cas9, the “Cas9 with SSAP activity” value is listed as −0.428 and the “Cas9 with SSAP activity (normalized)” value was −0.545. In addition, in the assay with gene editing with dCas9, the “dCas9 with SSAP activity” value was −1.088 and the “dCas9 with SSAP activity (normalized)” value is −1.120.

B9: SSAP_119: SEQ ID NO: 288; Bacillus albus (protein, listed as Bacillus albus)
chain: ATNEKLKNQLANRKESAPATPEQTVEAYMKKMAPKMAEVLPKHMDMGRMSRMALTTMRTSPKLLNCTVSSLMGAVMQAVQLGLEPGLLGHCYILPYKGEATFIIGYKGMIDLARRSGHIQSIYAHAVHENDEFDYELGLHPKLEHKPVHGDRGAFVGAYAVAHFKDGGYQMEFMPKSEIEKRRKRSASANSSFSPWKSDYEEMAKKTVIRYIFKYLPISIEVQLLAAQDEVVRKDITEEPEFIEADPIDVEQPTTEGDGQQEFSIEE
Take B9: in assay [1], the “Activity across all experiments” value is given as −1.050. In the assay with gene editing with Cas9, the “Cas9 with SSAP activity” value is recorded as −0.911 and the “Cas9 with SSAP activity (normalized)” value is given as −3.635. In the assay with gene editing with dCas9, the “dCas9 with SSAP activity” value is on record as −1.189 and the “dCas9 with SSAP activity (normalized)” value is recorded as −0.361.

B10: SSAP_159: SEQ ID NO: 328; Clostridium hathewayi CAG: 224 (protein, listed as Clostridium hathewayi)
chain: ANDIRGELARRASGTETQAVKLTKNMSIPDMIKALEPEIKRALPTILTPERFTRIALSAINNTPKLAECSPMSFIAALMNAAQLGLEPNTPLGQAFLIPYKVKGSLECQFQIGYRGMIDLAYRNERVQSIEAHTVYENDVFEYELGLNPRLVHIPTMEEPGDPIAFYGIFRLDNGGFRFEVMNKNAIDAYAARYSKAYDSASSPWKNNYESMACKTVLKQLLKYSPMKSEFQKAVSMDESVKTELSVDMSEVQNVNLIEETQEDAA
Take B10: in assay [1], the “Activity across all experiments” value came to 0.233. In addition, in the assay with gene editing with Cas9, the “Cas9 with SSAP activity” value was found to be 1.622 and the “Cas9 with SSAP activity (normalized)” value was determined as 2.756. Moreover, in the assay with gene editing with dCas9, the “dCas9 with SSAP activity” value is reported as −1.156 and the “dCas9 with SSAP activity (normalized)” value is recorded as −0.358.

B11: SSAP_59: SEQ ID NO: 228 (protein)
chain: SEIQQQAEAQTQAHPTAVLDDYRGAIASVAPPGTNIDLFIRMTKSNVNRSDEIVAAVKRNPGLFMQAVMDSAALGHIPGSEYYYLTPRRDGISGIESWKGVAKRIFNTGRYQRIVCEVVYEGEQWEFQPGEDLKPKHVIDWDARQVGSKVRFTYAYAVDFEGNPSTVAVCTKLDLDKAQKQSRGKVWDQWYEQMAKKTAIKRLEDFVDTSAVDLRADGSSRRHSAEVAE
With B11, in assay [1], the “Activity across all experiments” value was −0.491. In addition, in the assay on gene editing with Cas9, the “Cas9 with SSAP activity” value is 0.218 and the “Cas9 with SSAP activity (normalized)” value turned out to be 0.538. In the assay with gene editing with dCas9, the “dCas9 with SSAP activity” value is listed as −1.201 and the “dCas9 with SSAP activity (normalized)” value is −0.336.

B12: SSAP_278: SEQ ID NO: 447; Paraliobacillus ryukyuensis (protein, listed as Paraliobacillus ryukyuensis)
chain: ATNDTLKNQISNKKNNQVAEGKQGTTMKGLLNSPAVMKRFEEVLGKRANQFTASILSLYNNEKTLQKSEPMSVISSAMIAATLDLPIDKNLGYAWIVPYGNKAQFQLGYKGYIQLALRTGQYRNINVIEVYEGELVKWNRLTEELELDFEQKKSDKVIGYTGYFELINGFRKTVYWSKADIEKHKQKFSKSNFGWSNDWDAMAKKTVIRNMLNKWGILSIDMQKAYSTDEIEQEQESNDFIDGEWAEVSEDDITEAMNEV
For B12, the “Activity across all experiments” value in assay [1] is −0.030. For the same molecule, in the assay with gene editing with Cas9, the “Cas9 with SSAP activity” value stood at 1.070 and the “Cas9 with SSAP activity (normalized)” value was found to be 2.231. Also, in the assay on gene editing with dCas9, the “dCas9 with SSAP activity” value was −1.129 and the “dCas9 with SSAP activity (normalized)” value is listed as −1.000.
